Laboratory results: the nanobody polyreactivity screen of Harvey et al. (2022)

Experiment: yeast display, Sf9 membrane polyspecificity reagent, FACS + sequencing; frameworks hold sequencing errors
Outline: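 In a synthetic yeast display library (Saccharomyces cerevisiae BJ5465), nanobody expression was induced with galactose for 36–48 hours. FACS gates were set low and high (top ~1%) using anti-HA fluorescence for expression and streptavidin fluorescence for binding of the Sf9 membrane reagent. Each polyreactivity label is drawn from the gate of origin.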

## QVQLVESGGGLVQAGGSLRLSCAASGSIFGRYVMGWYRQAPGKERELVAAITSVGITNYADSVKGRFTISRDNAKNTVYLQMNSLKPEDTAVYYCAKRYYRYGARSWYYPYDYWGQGTQVTVSS
  polyreactivity (PSR sort gate): high polyreactivity

## QVQLVESGGGLVQAGGSLRLSCAASGSIKDNVMGWYRQAPGKERELVAAITRSAGRTYYADSVMGRFTISRDNEKNTVYLQMNSLKPEDTAVYYCASQAERYGYEYWGQGTQVTVSS
  polyreactivity (PSR sort gate): low polyreactivity

## QVQRVESGGGLVQAGGSLRLSCAASGLTFRYYAVGWYRQAPGKERELVAAITSNGGRTYYADSVKGRFTISRDNAKNTVYLQMNSLKPEDTAVYYCAAVYLYYGGVDYWGQGTQVTVSS
  polyreactivity (PSR sort gate): high polyreactivity

## QVQLVESGGGLVQAGGSLRLSSAASGITFYFYVMGWYRQAPGKERELVADISTSDDSTYYADSVKGRFTISRDNAKNTVYLQMNSLKPEDTAVYYCATATRTYSAWYEYDYWGQGTQVTVSS
  polyreactivity (PSR sort gate): low polyreactivity

## QVQLVESGGRLVQAGGSLRLSCASSGRTFYPYVMGWYRQAPGKERELVAAISSGTSTYYADSVKGRFTISRDNAKNTVYLQMNSLKPEDTAVYYCAVRVYTYVLYDFWGQGTQVTVSS
  polyreactivity (PSR sort gate): high polyreactivity

## QVQLVESGGGLVQAGGSLRLSCAASGSIFWYYAMGWYRQAPGKERELVAAISGSGTRTYYADSVKGRFTISRDNAKNTVYLQMNSLKPEDTAVYYCAATAVRQSGRYLSSSGYDYWGQGTQVTVSS
  polyreactivity (PSR sort gate): high polyreactivity

## QVQLVESGGGFVQAGGSLRLSCASSGRIFRGYTMGWYRQAPGKEREFVAAIRRSGGTTYYADSVKRRFTISRDNAKNTVYLQMNSLKPEDTAVYYCAAGYPGFTYQRRKYDYWGQGTQVTVSS
  polyreactivity (PSR sort gate): high polyreactivity

## QVQLVESGGGFVQAGGSLRLSCAASGLIFSWYDMGWYRQAPGKERELVAAITTDGDDTYYADSVKGRFTISRDNAKNTVYLQMNSLKPEDTAVYYCAADSELAIRYPDRDYDSWGQGTQVTVSS
  polyreactivity (PSR sort gate): low polyreactivity

## QVQLQDSGGGLVQARGSLRPSCAASGTISDGVPMGWYRQAPGEVRELVATTVLGATTNYADSVKGRFTISRGNAKNTVYLQMNSLKPEETAVYYCAAPLRYDKGFSYWGQGTQVTVSS
  polyreactivity (PSR sort gate): low polyreactivity

## QVQLEESGGGLVQAGGSLRLSCAASGSTFTGYAMGWYRQAPGKERELVAAISISGGRTFYADSVKVRFTISRDNAKNTVYLQMNSLKPEDTAVYYCAAYLRGSKYSFDYWGQGTQVTVSS
  polyreactivity (PSR sort gate): high polyreactivity

## QVQLVESGGGLVQAGGSLRLSCAASGIIFAFYAMGWYRQAPGKERELVAAISIDGSTYYADSVKGRFTISRDNAKNTVYLQMNSLKPEDTAVYYCAAEGNGYLVSTWWVRYEYWGQGTQVTVSS
  polyreactivity (PSR sort gate): low polyreactivity

## QVQLVESGGGLVQAGGSLRLSCAASGITFKYYAMGWYRQAPGKERELVAAISRGGTTSYADSVKGRFTISRDNAKNTVYLQMNSLKPEETAVYYCAAKYWWYPYFTVDYDYWGQGTQVTVSS
  polyreactivity (PSR sort gate): high polyreactivity

## QVQLVESGGGLVQAGGSLRLSCAASGFTLEFSAMGWYRQAPGKERELVASISSGGRTNYADSVKGRFTISRDNAKNTVYLQMYSLKPVDTAVYYCAAEYRSWGRYRYRFNYWGQGTQVTVSS
  polyreactivity (PSR sort gate): high polyreactivity

## QVQLVESGGGLVQAGGSLRLICAPSGSIFTYYAMGRYRQAPGKEKELVAAISQSGGTTYYADSVKGRFTISRDNAKNTVYLQMNSLKPEDTAVSYCAARAPSSFDTQYYYWGQGTQVTVSS
  polyreactivity (PSR sort gate): low polyreactivity

## QVQLVESGGGLVQAGGSLRLSCAASGSIFDLYAMGWYRQAPGKERELVAAINSGGSTYADSVKGRFTISRDNSKNTVYLQMNSLKPEDTAVYYCNADYRHSLGSGYDYWGQVTQVTVSS
  polyreactivity (PSR sort gate): low polyreactivity

## QVQLVESGGGLVQAGGSLRLSCASSGITFSFYVMGWYRQAPGKERELVAAISRGGSTYYADSVKGRFTISRDNANNTVYLQMNSLKPEDSAVYYCAAVRLSRVYYWGQGTQVTVSS
  polyreactivity (PSR sort gate): high polyreactivity

## QVQLVESGGGLVQAGGSLRLSCAASGRTFTRNAMGWYRQAPGKERELVAAISYSGGSTYYADSVKGRFTISRDNAKNTVYLQMNSLKPEDTAVYYCNAATSRRSIRYDYWGQGTQVTVSS
  polyreactivity (PSR sort gate): high polyreactivity

## QVQLVESGGGLVQAGGSLRLSCAASGFTFWYYSMGWYRQAPGKERELVASISRTGGTTYYADSVKGRFTISRDNAKNTVYLQLNSLKPEDTAVYYCNARPKVYYREYDYWGQGTQVTVSS
  polyreactivity (PSR sort gate): high polyreactivity

## QVHLVESGGGLVQAGGSFRLSCAASGSIFDGYSMGWYRQAPGKERELVAAISYRVGRTYYADSVKGRFTISRDNAKNTVYLQMNSLKPEDTAVYYCAAGYYGNGVFEYDYWGQGTQVTVSS
  polyreactivity (PSR sort gate): low polyreactivity

## QVQLVESGGGLVQAGGSLRLSCAASGRILRGNAMGWYRQAPGKEREFFAAIRRSGGTSYYADSVKGRFTISRDNAKNTVYLQMNSLKPEDTAVYYCAATKYQTSGDRGYEHWGQGTQVTVSS
  polyreactivity (PSR sort gate): low polyreactivity

## QVQLVESGGGLVQAGGSLRLSCDASGSIFYRYAMGWYRQAPGKERELVASISSGVSTNYADSVKGRFTISRDNAKNTVYLQMNSLKPEDTAVYYCAAYYRGWSSSYWYPAYNYWGHGTQVTVSS
  polyreactivity (PSR sort gate): low polyreactivity

## QDQLVESGGGLVQAGGSLRLSCAASGRTFRRYAMGWYRQAPGKERELVAAISASGGSTYYADSVKGRFTISRDNAKNTVYLQMNSLKPEDTAVYYCYALHRAGLFGHYPYESWGQGTQVTVSS
  polyreactivity (PSR sort gate): high polyreactivity

## QVQLVESGGGLVQAGGSLRLSCAASGSTLSFKAMGWYRQAPGKERELVAGITYSGGSTYYADSVKGRFTISRDNAKNTVYLQMNSLKPEDTAVYYCNKASGVYYGHLDYWGQGTQVTVSS
  polyreactivity (PSR sort gate): low polyreactivity

## QVQLEEAGGGLVQAGGSLSLSCAASGSILKVYAMGWSRQAPGQERELVAGNTRAGGSTNDADSVKGRFTISRDYAKNTVLLQMNSLKPEDTPVYYCAGRLKCYRRRDYWGQGTQVSVSS
  polyreactivity (PSR sort gate): high polyreactivity

## QVQLVESGGGLVQAGGSLRLSCAPSGNTFFLNAMGWYRQAPGKERELVAAITSSGGSTYYADSVKGRFTISRDNAKNTVYLQMNSLKPEDTAVYYCGTDRSYPPRSLNRRGPYEYWGQGTQVTVSS
  polyreactivity (PSR sort gate): low polyreactivity

## QVQLVESGGGLVQAGGSLRLSCAASGSTFHNYAMGWYRQAPGKERELVAGISVRGGGTYYADSVKGRFTISRDNAKNTVYLQMNSLKPEDTAVYYCAPDFYWFWTYGTLWYGYEYWGQGTQVTVSS
  polyreactivity (PSR sort gate): high polyreactivity

## QVQLVESGGALVQAGGSLRLSCAASGSIFCYYAMGWYRQAPGKERELVAVINSGGRTNYADSVKGRFTISRDNAKNTVYLQMNSLKPEDTEVYYCAAQGYFVDRAGRYYRGDYWGQGTQVTVSS
  polyreactivity (PSR sort gate): high polyreactivity

## QVQLVESGVGLVQAGGSLRLSCAASGRIFYYNAMGWYRQAPGKVRELVASISWDASSTYYADSVKGRFTISRDNAKNTVYLQMNSLKPEDTAVYYCNKKHLYRQYDYWGQGTQVTVTS
  polyreactivity (PSR sort gate): low polyreactivity

## QVQLVESGGVLVQAGGSLRLSCAASGLDYYAIGWYRQAPGKERELVAAIDWSGVSTYYADSVKGRFTISRDNAKNTVYLQMNSLKPEDTAVDYCAALYYGWPRVSYGLGEYGYWGQGTQVTVSS
  polyreactivity (PSR sort gate): low polyreactivity

## QVQLVESGGVLVQAGGSLRLICAASGSIFNRYAMGWYRHAPGKDRELVAAISRSGGRTYYADSVKGRFTISRDNAKNTVYLQMNSLKPEDTAVYYCAADKYYRQHEYDYWGQGTQVTVSS
  polyreactivity (PSR sort gate): high polyreactivity

## QVHLVESVGGLVQAGGSLRLSCAASGFIYKPYAMGWYRQAPGKERELVAAITVNGCTTYYADSVKARFTISRDNAKNTVYLQMNSLKPEDTAVYYCNRGSPGGPSWYHYDYWGQGTQVTVSS
  polyreactivity (PSR sort gate): high polyreactivity

## QVQLQESGGGLVQAGGSLRLSCAASCTISQEDWMGWYRQAPGKEREFVAAIGLGSNTNYADSLKGRFTISRDNAKNTVYLQMNSLKPEDTAVSYCAVSVWQYSDHVYRGQGTQVTVSS
  polyreactivity (PSR sort gate): low polyreactivity

## QVQHVESGGGFVQAGGSLRLSCAASGITFYDYTMGWYRPAPGKERELVDAITSSGVSTYYADSVKGRFTISRDNAKKTVYLQMNSLKPEDTAVYYCATDAWSVYSYLAFTYDYWGQGTQVTVSS
  polyreactivity (PSR sort gate): low polyreactivity

## QVQLVESGGGLVQAGGSLRLSCAASGRTFGYNAMGWYRQAPGTERELVAAIRTIGDSTYYADSVKGRFTISRDNAKNTVYLQMNILKPVDTSVYYCAARKLRSRFDYWGQGTQVTVSS
  polyreactivity (PSR sort gate): high polyreactivity

## QVQLVESGGGLVQAGGSLRLSCAASGITFKDYAMGWYRQATGKERELVAVISYSGGSTYYADSVKGRFTISRDNAKNTVYLQMNSLKPEDTAVYYCAARVGPEYDWGQGTQVTVSS
  polyreactivity (PSR sort gate): low polyreactivity

## QVQLVESGGGLVQSGGSLRLSCAASGSTIPSYALGWYRHAPGKERELVASITYSDGTTSYADSVKGRFTISRDNAKNTVYLQMNSLKPEDTAVYYCNAVYYREGMDYWGQGTQVTVSS
  polyreactivity (PSR sort gate): low polyreactivity

## QVQLVESGGGLVQAGGSLRLSCAASGRTFKYYAKGWYRQAPGKERELVAAINSGGITYYADTVKGRFTISRDNEKNTVYLQRNSLKAEDTAVYYCAKVWKIGVLRYPSYGYYYWGQGTQVTVSS
  polyreactivity (PSR sort gate): high polyreactivity

## QVQLVESGGGLVQAGGSLRLSCAASGFTFYLYTMGWYRQAPGKERELVAAISWRGGGTYYADSVKGRFTISRDNAKNTVYLQMNSLKPEDTAVYYCAAYWRRRLDYYYWGQGTQVTVSS
  polyreactivity (PSR sort gate): high polyreactivity

## QVQLVESGGGLVQAGGSLRLSCAASGITFNVLAMGWYRQAPGKEREFVAAISTRDGTTYADSLKGRFTISRDNAKNTVYLQMNSLKPEDTAVYYCAAAYYYDGQQGDFDYWGQGTQVTVSS
  polyreactivity (PSR sort gate): low polyreactivity

## QVQHVESGGGLVQAGGSLRLSSAASGRTFFRSAMGWYRQAPGKERELVAAISSRGGSTYYADSVKGRFTISRDNAKNTVYLHMNSLKPEDTAVYYCNAAAFINFILYDYWGQGTQVTVSA
  polyreactivity (PSR sort gate): high polyreactivity

## QVQLVESGGGLVQAGGSLRLSCAASGRIFEVNVMGWYRQAPGKERELVAAITTGGGSTYYADSVKGRFTISRDNAKNTVYLQMNSLKPEDTAVYYCAAEPILIDEYWGQGTQVTVSS
  polyreactivity (PSR sort gate): low polyreactivity

## QVQLVDSGGGLVQAGGSLRLSCAASGRTFDNYAMGWYRQAPGKERELVAAISSSGGRTYYADSVKGRFTISRDNAKNTVYLQMNSLKPEDTAVYYCAAVWPVYRTHPGMDYWGHGTQVTVSS
  polyreactivity (PSR sort gate): high polyreactivity

## QVQLVESGGGLVQAGGSLRLSCAASGFTFVGNAMGWYRQAPGKERELVAAIRWSSGSTYYADSVKGRFTISRDNAKNTVYLQMNSLKPEDTAVYYCNAVYSVFYEYDYCGQGTQVTVSS
  polyreactivity (PSR sort gate): low polyreactivity
